The series addresses Tfl-bZip (GCN4 residues 226-281, leucine zipper leucines replaced with 5,5,5-trifluoroleucine) Leu to 5,5,5-trifluoroleucine in the GCN4-p1 dimerization domain (four d-position leucines) (UniProt P03069). As to the kind of experiment: EMSA. On the technique in general: In EMSA bound probe runs differently from free probe, usually more slowly.

The values below come from patent US20130012690.

Chain of Tfl-bZip (GCN4 residues 226-281, leucine zipper leucines replaced with 5,5,5-trifluoroleucine) Leu to 5,5,5-trifluoroleucine in the GCN4-p1 dimerization domain (four d-position leucines) (P03069 whole entry, the tested form may be a part): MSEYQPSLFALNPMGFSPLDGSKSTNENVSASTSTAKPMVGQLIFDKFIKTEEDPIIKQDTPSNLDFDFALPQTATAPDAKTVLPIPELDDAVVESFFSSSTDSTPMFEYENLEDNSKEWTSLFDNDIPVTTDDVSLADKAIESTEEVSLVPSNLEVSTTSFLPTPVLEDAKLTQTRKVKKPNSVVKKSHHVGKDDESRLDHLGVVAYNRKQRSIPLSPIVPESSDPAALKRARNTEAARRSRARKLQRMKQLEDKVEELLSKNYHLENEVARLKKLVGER

“GTGGAGATGACTCATCTCCGG (double strand) [AP-1 site oligonucleotide]”: the Kd (densitometry of mobility shift assay) turned out to be 12.5 nM.

In the case of “TGGAGATGACGTCATCTCCT (double strand) [CREB site oligonucleotide]”, the Kd (densitometry, CD at 0 C also shows coil-to-helix transition on DNA binding) was determined as 5.4 nM.

In general, Kd refers to the constant that tells how readily two partners part at equilibrium.
